{"source": "patent US6485941B1", "about": "“Inhibition of the carboxyltransferase component of acetyl-CoA carboxylase, and the use of such inhibition in anti-cancer and anti-lipogenic therapies” (Board of Supervisors of Louisiana State University and …, priority 2002, dated 2002)", "substrate": "CC(C)(COP(=O)(O)OP(=O)(O)OC[C@H]1O[C@@H](n2cnc3c(N)ncnc32)[C@H](O)[C@@H]1OP(=O)(O)O)[C@@H](O)C(=O)NCCC(=O)NCCSC(=O)CC(=O)O", "experiment": "Carboxyltransferase inhibition, assayed in the reverse direction with coupled spectrophotometric detection", "format": "biochemical, E. coli", "details": "other: substrate of carboxyltransferase", "protocol": "Carboxyltransferase was purified from a strain of E. coli that overexpresses the genes encoding the α and β subunits of the enzyme.\nCarboxyltransferase was assayed in the reverse direction: the production of acetyl-CoA was detected by using the coupling enzymes malate dehydrogenase and citrate synthase, and the reduction of NAD^+ was measured spectrophotometrically by the method of C.\nIn Equations [1] and [2], v is the initial velocity, Vm is the maximal velocity, A is the substrate concentration, I is the concentration of inhibitor, Km is the Michaelis constant, Kis is the slope inhibition constant, and Kii is the intercept inhibition constant.\nv=VmA/(Km(1+I/Kis)+A(1+I/Kii)) [2]\nThe activity of carboxyltransferase was measured in the reverse direction using malonyl-CoA and biocytin as substrates."}
{"protein": "carboxyltransferase component of E. coli acetyl-CoA carboxylase (Escherichia coli K-12) (protein, made in house; host or cells: E. coli overexpression strain (Blanchard et al. 1998; G. Waldrop, LSU)) chain 1: MSLNFLDFEQPIAELEAKIDSLTAVSRQDEKLDINIDEEVHRLREKSVELTRKIFADLGAWQIAQLARHPQRPYTLDYVRLAFDEFDELAGDRAYADDKAIVGGIARLDGRPVMIIGHQKGRETKEKIRRNFGMPAPEGYRKALRLMQMAERFKMPIITFIDTPGAYPGVGAEERGQSEAIARNLREMSRLGVPVVCTVIGEGGSGGALAIGVGDKVNMLQYSTYSVISPEGCASILWKSADKAPLAAEAMGIIAPRLKELKLIDSIIPEPLGGAHRNPEAMAASLKAQLLADLADLDVLSTEDLKNRRYQRLMSYGYA chain 2: MSWIERIKSNITPTRKASIPEGVWTKCDSCGQVLYRAELERNLEVCPKCDHHMRMTARNRLHSLLDEGSLVELGSELEPKDVLKFRDSKKYKDRLASAQKETGEKDALVVMKGTLYGMPVVAAAFEFAFMGGSMGSVVGARFVRAVEQALEDNCPLICFSASGGARMQEALMSLMQMAKTSAALAKMQERGLPYISVLTDPTMGGVSASFAMLGDLNIAEPKALIGFAGPRVIEQTVREKLPPGFQRSEFLIEKGAIDMIVRRPEMRLKLASILAKLMNLPAPNPEAPREGVVVPPVPDQEPEA", "values": [{"measurement": "Km", "result": 100, "unit": "µM"}]}
